Measured values published in article PMC6476931.
pKd: −log10 of the molar value.

Molecular target: Human fibrinogen (human) (UniProt P02671)
Experiment: ELISA; Fg coated on wells (5 μg/ml, 0.5 μg/well); GST-vWbp or GST-Coa proteins in 1% BSA, 0.05% Tween 20, TBS, 1 h at room temperature; detected with HRP anti-GST; one-site fit, apparent KD, mean of three experiments

Chain of Human fibrinogen (human) (P02671 36-866, chain 1 of 3): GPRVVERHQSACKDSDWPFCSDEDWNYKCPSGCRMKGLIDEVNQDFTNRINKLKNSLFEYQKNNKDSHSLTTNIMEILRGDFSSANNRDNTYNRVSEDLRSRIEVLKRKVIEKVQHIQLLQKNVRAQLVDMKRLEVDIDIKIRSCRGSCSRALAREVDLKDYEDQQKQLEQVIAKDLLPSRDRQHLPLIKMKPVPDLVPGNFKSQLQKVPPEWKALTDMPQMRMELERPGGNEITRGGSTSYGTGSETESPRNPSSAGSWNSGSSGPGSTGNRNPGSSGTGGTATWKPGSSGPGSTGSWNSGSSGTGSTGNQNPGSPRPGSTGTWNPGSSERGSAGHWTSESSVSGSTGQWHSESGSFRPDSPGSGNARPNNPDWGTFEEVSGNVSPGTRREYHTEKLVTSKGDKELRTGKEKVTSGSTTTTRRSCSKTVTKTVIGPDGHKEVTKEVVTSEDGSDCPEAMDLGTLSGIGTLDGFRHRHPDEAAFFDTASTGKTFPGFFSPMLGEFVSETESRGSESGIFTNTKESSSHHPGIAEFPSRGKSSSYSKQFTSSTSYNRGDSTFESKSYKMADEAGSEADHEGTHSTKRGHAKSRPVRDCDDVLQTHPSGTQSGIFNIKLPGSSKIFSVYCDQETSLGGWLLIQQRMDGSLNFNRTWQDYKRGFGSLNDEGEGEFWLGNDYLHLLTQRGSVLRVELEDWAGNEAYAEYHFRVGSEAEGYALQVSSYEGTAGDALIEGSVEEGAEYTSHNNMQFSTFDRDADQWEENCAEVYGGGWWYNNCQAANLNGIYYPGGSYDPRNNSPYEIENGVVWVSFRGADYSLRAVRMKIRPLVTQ
Chain of Human fibrinogen (human) (P02675 45-491, chain 2 of 3, further chain): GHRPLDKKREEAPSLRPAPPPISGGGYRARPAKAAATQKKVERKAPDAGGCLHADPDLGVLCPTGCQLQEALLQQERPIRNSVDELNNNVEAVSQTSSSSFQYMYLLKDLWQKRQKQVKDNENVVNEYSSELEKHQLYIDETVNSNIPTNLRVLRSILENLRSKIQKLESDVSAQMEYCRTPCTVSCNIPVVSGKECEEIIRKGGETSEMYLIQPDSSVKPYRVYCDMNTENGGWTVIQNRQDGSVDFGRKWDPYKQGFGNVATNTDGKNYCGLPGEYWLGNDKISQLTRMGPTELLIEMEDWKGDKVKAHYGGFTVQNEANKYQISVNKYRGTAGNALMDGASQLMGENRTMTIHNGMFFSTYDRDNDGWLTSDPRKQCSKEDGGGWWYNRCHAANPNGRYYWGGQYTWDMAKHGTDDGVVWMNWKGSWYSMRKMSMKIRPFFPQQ
Chain of Human fibrinogen (human) (P02679 27-453, chain 3 of 3, further chain): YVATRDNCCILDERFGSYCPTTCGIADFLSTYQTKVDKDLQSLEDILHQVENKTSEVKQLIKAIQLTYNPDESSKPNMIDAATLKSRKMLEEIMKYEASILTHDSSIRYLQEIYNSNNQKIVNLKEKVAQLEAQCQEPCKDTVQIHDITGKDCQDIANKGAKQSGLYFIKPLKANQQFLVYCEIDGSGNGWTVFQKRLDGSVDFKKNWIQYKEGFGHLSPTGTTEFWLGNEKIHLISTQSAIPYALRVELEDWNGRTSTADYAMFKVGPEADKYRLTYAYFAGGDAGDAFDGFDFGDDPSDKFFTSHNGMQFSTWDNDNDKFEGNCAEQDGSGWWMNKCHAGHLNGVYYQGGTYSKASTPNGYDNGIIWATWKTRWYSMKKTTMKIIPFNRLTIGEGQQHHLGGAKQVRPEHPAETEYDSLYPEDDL

Substance	pKd
GST-vWbp-N (N-terminal half of vWbp) (domain or fragment)	8.49
GST-vWbp-C (C-terminal half of vWbp) (domain or fragment)	7.42
